This assay concerns SKBR3 human breast cancer cells. Kind of assay: DNA damage responses (cell cycle arrest, apoptosis) in SKBR3 cells. The class given is cell-based. To be noted: RANKL 1 μg/ml. How it is done:
a, Western Blot analysis for γH2AX, phosphorylated (P) Chk1, total Chk1, p53 and β-actin in isolated primary mouse mammary gland epithelial cells in response to γ-irradiation (2 Gray) in the presence (1 μg/ml) or absence of RANKL stimulation. b,c, FACS analysis of propidium iodide (PI) stained b, mammary epithelial cells and c, SKBR3 human breast cancer cells after γ-irradiation (2 Gray) in the absence or presence (1 μg/ml) of RANKL. Data are representative of at least 3 experiments. Apoptotic cells with a DNA content <2n appear in the sub-G1 region. Percent of cells in sub-G1 (M1), G1-phase (M2), S/G2/M-phase (M3) as well as polyploid cells with a DNA content >4n are given for the indicated time points.
a,b, FACS analysis of a, mammary epithelial cells and b, SKBR3 human breast cancer cells incubated with the genotoxic agent doxorubicin (Dox, 1 μM) in the presence (1 μg/ml) or absence of RANKL. Data are representative of at least 3 experiments. Percent of cells in sub-G1 (M1), G1-phase (M2), S/G2/M-phase (M3) as well as polyploid cells with a DNA content >4n are given for 24 and 36 hours after doxorubicin treatment. c, mRNA expression of pro-apoptotic genes Bim, Puma, and Noxa 6 hours after γ-irradiation (2 Gray) in the presence (1 μg/ml) or absence of RANKL stimulation. Data are shown as fold change compared to control (+/−sem). n=3). *P<0.05; **P<0.005 (Student's t-test).
For measurement of cell cycle arrest and apoptosis primary mouse mammary epithelial cells and SKBR3 human breast cancer cells were seeded at a cell-density of 100000 cells/well in a 6-well plate and allowed to grow for 24 hours. Cells where then treated with doxorubicin (1 μM) or γ-irradiation (2 Gray) in the absence or presence of recombinant RANKL (1 μg/ml). Cell cycle arrest and numbers of dead cells were determined using propidium iodine staining. To determine in vivo mammary gland epithelial cell death, control and RANK^Δmam littermate females were γ-irradiated with a total dose of 5 Gray (Gy). Six hours later, mammary glands were isolated and immunostained for active Caspase 3 (Cell Signaling) indicative of apoptosis.

B1: RANKL: Receptor Activator of NF-κB Ligand; recombinant murine RANKL used for stimulation (protein, UniProt O35235 139-316, looked up)
Tumor necrosis factor ligand …: FSGAPAMMEGSWLDVAQRGKPEAQPFAHLTINAASIPSGSHKVTLSSWYHDRGWAKISNMTLSNGKLRVNQDGFYYLYANICFRHHETSGSVPTDYLQLMVYVVKTSIKIPSSHNLMKGGSTKNWSGNSEFHFYSINVGGFFKLRAGEEISIQVSNPSLLDPDQDATYFGAFKVQDID
B1: for the setting “doxorubicin (1 μM)”, the “cell death after DNA damage” value is on record as “marked protection from cell death” and the “early cell cycle arrest after DNA damage” value is on record as “did not alter”. Where the note is “γ-irradiation (2 Gray)”, the “cell death after DNA damage” value was “marked protection from cell death” and the “early cell cycle arrest after DNA damage” value is “did not alter”.
